Measured values taken from US20050106674A1.

Each substance was assayed against recombinant soluble HEK4 binding protein purified from CHO/HL6 cell-conditioned medium (human) (UniProt P52803) (assay: BIAcore competition: soluble receptor extracellular domain preincubated with 0.250 µg/ml HEK4 BP, binding to immobilized HEK4 receptor).
Chain of UniProt P52803 (P52803 20-198 limits assumed, form in doubt): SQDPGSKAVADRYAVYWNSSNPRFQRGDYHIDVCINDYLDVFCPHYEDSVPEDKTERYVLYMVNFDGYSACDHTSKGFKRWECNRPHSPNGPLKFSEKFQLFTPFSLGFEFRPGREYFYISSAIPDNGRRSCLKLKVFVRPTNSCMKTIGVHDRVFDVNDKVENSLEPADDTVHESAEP
An IC50 of 5 µg/mL was found for “ECK soluble receptor (purified extracellular domain) (from UniProt P29317 24-537)” in this work. An IC50 of 0.55 µg/mL was found for “HEK4 receptor extracellular domain (HEK4-X), produced in CHO cells (from UniProt P29320 21-541)” in this work. An IC50 of 10.5 µg/mL was found for “HEK8 soluble receptor (purified extracellular domain) (from UniProt P54764 20-547)” in this work.
